Where a chain is given by its changes, count along the chain named.
Tests used:
[1] = molecular target: T1, Cytohesin-2 Sec7 domain (UniProt Q99418 Q99418:72-201); experiment: filter; competition vs 32P-C10.35; IC50 only in figure; 3 mM MgCl2 in PBS, 0.005% Triton X-100, 37 C; conditions: tags: His (detected with anti-penta-His); expressed in E. coli; label: 5'-32P for radiolabeled tracer; stem with a double bulge
T1 sequence: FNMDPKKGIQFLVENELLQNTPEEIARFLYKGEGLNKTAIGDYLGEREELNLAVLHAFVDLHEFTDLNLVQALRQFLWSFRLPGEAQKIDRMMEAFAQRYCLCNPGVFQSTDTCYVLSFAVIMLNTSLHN
Description: (§1) To determine the affinity, ˜10 fmol of radiolabeled aptamer was incubated with protein dilution series for 30 min at 37° C. in 25 μL of buffer containing 1 mg/ml E. coli tRNA (Roche, Mannheim, Germany), 1 μg/ml BSA, 3 mM MgCl₂ in PBS, pH 7.4. For Sec7, 0.005% Triton X-100 was added and for c-Met-Fc, 1 mg/ml of BSA was used instead of 1 μg/ml. The aptamer-protein complexes were captured on a Protran™ nitrocellulose membrane (GE Healthcare) that was pre-incubated in 0.4 M KOH for 10 minutes, followed by washing with ddH₂O and PBS containing 3 mM MgCl₂, pH 7.4. After addition of the aptamer-protein solution, the filter was washed 4 times with PBS containing 3 mM MgCl₂, pH 7.4. Radioactivity was quantified using a Fujifilm Fla-3000 PhosphorImager and AIDA software package. The percentage of bound aptamer was calculated using equation 1:
(§2) Filter retention assays in which the 5′-functionalized aptamer competed with the non-functionalized aptamer for binding to Sec-7 were performed as described above to test the influence of the 5′-functionalization on aptamer binding.

[2] = molecular target: T1, Cytohesin-2 Sec7 domain; experiment: 365 nm photo-crosslinking, Western blot; marginal at highest concentration only; no band in H460 lysate (p104); conditions: tags: His (detected with anti-penta-His); expressed in E. coli; label: biotin
Description: Incubation of the target protein Sec7 with the 5′-functionalized aptamer C10.35 was performed by mixing 250 nM of the aptamer with different protein concentrations at 37° C. for 30 min as described in Examples 2 and 4. Crosslinking also was performed on ice by illuminating at 365 nm for 10 minutes.
Further, the amount of cross-linking of the 5′-functionalized aptamer C 10.35 to Sec-7 was investigated after incubating […] 167 nm, 56 nm and 19 nM Sec-7 with 250 nM of the 5′-functionalized aptamers C10.35 and C10.35 C15T, followed by UV irradiation at 365 nm using SDS-PAGE, followed by western blotting using neutravidin-dylight™ 800 (Thermo Scientific) to visualize biotinylated proteins. Anti-penta-his (1:2000, Qiagen) was used to visualize the total amount of Sec7 and goat-anti-mouse-IgG-dylight™ 800 (Thermo Scientific) was used as a secondary antibody. The blots were scanned at 800 nm using an Odyssey scanner (Li-cor Biotechnology, Bad Homburg, Germany).

[3] = molecular target: T1, Cytohesin-2 Sec7 domain; experiment: filter; affinity not altered vs unfunctionalized C10.35; high UV cross-linking; also cross-links in H460 lysate (p104); conditions: tags: His (detected with anti-penta-His); expressed in E. coli; label: biotin; stem with a double bulge
Description: as §1, §2

[4] = molecular target: T2, c-Met ectodomain-Fc fusion (HGFR) (UniProt P08581 P08581:25-932); experiment: filter; competition vs 32P-trCLN3; PBS pH 7.4, 3 mM MgCl2, tRNA 1 mg/ml, BSA 1 mg/ml, 37 C; conditions: tags: human IgG1 Fc fusion; His (detected with anti-penta-His); R&D Systems; chain copies: 2; label: biotin; G4
T2 sequence (P08581 25-932, one chain of several): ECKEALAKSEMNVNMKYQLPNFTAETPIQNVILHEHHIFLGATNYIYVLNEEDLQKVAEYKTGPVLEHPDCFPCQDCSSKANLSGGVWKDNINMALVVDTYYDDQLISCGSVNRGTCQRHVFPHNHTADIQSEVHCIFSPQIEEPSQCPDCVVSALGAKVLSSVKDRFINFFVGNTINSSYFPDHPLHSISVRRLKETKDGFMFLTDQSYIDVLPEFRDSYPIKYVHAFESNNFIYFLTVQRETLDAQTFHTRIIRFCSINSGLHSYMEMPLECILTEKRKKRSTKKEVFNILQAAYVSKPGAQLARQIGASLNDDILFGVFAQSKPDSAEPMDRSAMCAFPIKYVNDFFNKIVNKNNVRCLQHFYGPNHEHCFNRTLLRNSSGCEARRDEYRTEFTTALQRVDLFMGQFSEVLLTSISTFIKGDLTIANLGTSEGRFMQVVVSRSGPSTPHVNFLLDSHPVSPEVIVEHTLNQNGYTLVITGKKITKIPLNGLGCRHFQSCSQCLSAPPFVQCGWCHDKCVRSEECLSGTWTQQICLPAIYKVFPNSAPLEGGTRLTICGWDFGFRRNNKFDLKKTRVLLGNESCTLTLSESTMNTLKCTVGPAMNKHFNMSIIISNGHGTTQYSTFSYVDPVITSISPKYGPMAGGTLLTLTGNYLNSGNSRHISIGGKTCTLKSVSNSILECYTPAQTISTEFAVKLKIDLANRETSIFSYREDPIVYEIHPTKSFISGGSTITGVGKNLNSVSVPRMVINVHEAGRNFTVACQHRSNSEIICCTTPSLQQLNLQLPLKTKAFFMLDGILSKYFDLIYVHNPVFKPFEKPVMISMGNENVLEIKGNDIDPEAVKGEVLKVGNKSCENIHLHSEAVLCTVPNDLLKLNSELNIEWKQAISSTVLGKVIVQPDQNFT
Description: as §1, with “1: […]” for “1:”

[5] = molecular target: T2, c-Met ectodomain-Fc fusion (HGFR); experiment: filter; competition vs 32P-trCLN3; PBS pH 7.4, 3 mM MgCl2, tRNA, BSA, 37 C; nanomolar affinity stated; conditions: tags: human IgG1 Fc fusion; His (detected with anti-penta-His); R&D Systems; chain copies: 2; label: 5'-32P for radiolabeled tracer; G4 (two G-quadruplexes)
[6] = molecular target: T2, c-Met ectodomain-Fc fusion (HGFR); experiment: filter; no binding in tested range; in photo-crosslinking 24-fold lower signal than ABAL-trCLN3 at 500 nM c-Met (p87); conditions: tags: human IgG1 Fc fusion; His (detected with anti-penta-His); R&D Systems; chain copies: 2; label: biotin
Description: as §1, with “1: […]” for “1:”

B1: C10.35 (ssDNA)
DNA: ACTCGGGAGGACTGCTTAGGATTGCGAACCCGGGT
binding result [1]: binds

B2: ABAL-C10.35 C15T (ssDNA)
DNA: B1 DNA with C15T
modifications: 5'-hexylamine coupled Sulfo-SBED (phenyl azide, biotin)
binding signal [2]: 7 fold lower cross-linking than ABAL-C10.35

B3: ABAL-C10.35 (ssDNA)
DNA: B1 DNA
modifications: 5'-hexylamine coupled Sulfo-SBED (phenyl azide, biotin)
binding result [3]: binds

B4: ABAL-trCLN3 (ssDNA)
DNA: TGGATGGTAGCTCGGTCGGGGTGGGTGGGTTGGCAAGTCT
modifications: 5'-hexylamine coupled Sulfo-SBED (phenyl azide, biotin)
IC50 [4]: 0.05 µM

B5: trCLN3 (ssDNA)
DNA: B4 DNA
IC50 [5]: 0.076 µM

B6: ABAL-trCLN3 G25A (ssDNA)
DNA: B4 DNA with G25A
modifications: 5'-hexylamine coupled Sulfo-SBED (phenyl azide, biotin)
binding result [6]: no binding

Source: patent US20170059576, “METHOD OF DETERMINING A PROTEIN IN A SAMPLE” (RHEINISCHE FRIEDRICH-WILHELMS UNIVERSITAT BONN, published 2017)
